Results reported in article doi:10.1101/2020.01.21.912428.

Experiments:
[1] = molecular target: dTBCE-GFP expressed in Drosophila embryos (Drosophila melanogaster) (UniProt A1Z6J5); assay: fluorescence microscopy of beads
[2] = molecular target: dTBCE^mutCG-GFP expressed in Drosophila embryos (Drosophila melanogaster) (UniProt A1Z6J5); assay: fluorescence microscopy of beads

**Q.** For “bovine brain tubulin supplemented with 25 % of tubulin-rhodamin (from UniProt Q6B856 1-445) (complex)”, which mean fluorescence intensity in the tubulin-rhodamine channel [1] is on record?
**A.** 25.9 a.u.

**Q.** What about the mean fluorescence intensity in the tubulin-rhodamine channel [2] of the same substance?
**A.** 4.7 a.u.
